Kd data for two substances are collected here from paper PMC3101314.

The target of assay [1] is mature HIV-1 protease bearing drug-resistance mutation L76V (PR_(L76V)) (HIV-1). The assay can be described thus: enzyme activity against protease concentration.
Assay [2] has the same target. Nature of the assay: ITC.

As to “mature HIV-1 protease bearing drug-resistance mutation L76V (PR_(L76V)) (enzyme)”, the Kd in assay [1] was found to be 71 nM. Take “RPB inhibitor (H-Arg-Val-Leu-(r)-Phe-Glu-Ala-Nle-NH2), substrate-analog inhibitor with a reduced peptide bond”: in assay [2], the Kd was found to be 61 nM. That is a double-digit nanomolar value.
